Assay results as given in PMC9365671.
Where two headings read alike, the source gives them in different places. Each block holds one substance with its values, some of them ahead of it.

Legend:
[1] = biological target: taxol-stabilised microtubules of porcine brain tubulin (porcine) (UniProt P02550); test: single-molecule TIRF microscopy on microtubules; biotinylated taxol-stabilised MTs held on streptavidin-coated glass, motor in solution; 90 mM HEPES-KOH pH 7.6, 50 mM KCH3COO, 2 mM Mg(CH3COO)2, 1 mM EGTA, 10% glycerol, 2 mM ATP; landing rate = processive and non-processive events per MT length, time and motor concentration; parameters: landing rate: unit not given here
[2] = biological target: taxol-stabilised microtubules of porcine brain tubulin (porcine) (UniProt P02550); test: as above
[3] = biological target: KIF5C-KLC1 heterotetramer (human) (UniProt O60282)
Chain of KIF5C-KLC1 heterotetramer (human) (O60282 whole entry, chain 1 of 2): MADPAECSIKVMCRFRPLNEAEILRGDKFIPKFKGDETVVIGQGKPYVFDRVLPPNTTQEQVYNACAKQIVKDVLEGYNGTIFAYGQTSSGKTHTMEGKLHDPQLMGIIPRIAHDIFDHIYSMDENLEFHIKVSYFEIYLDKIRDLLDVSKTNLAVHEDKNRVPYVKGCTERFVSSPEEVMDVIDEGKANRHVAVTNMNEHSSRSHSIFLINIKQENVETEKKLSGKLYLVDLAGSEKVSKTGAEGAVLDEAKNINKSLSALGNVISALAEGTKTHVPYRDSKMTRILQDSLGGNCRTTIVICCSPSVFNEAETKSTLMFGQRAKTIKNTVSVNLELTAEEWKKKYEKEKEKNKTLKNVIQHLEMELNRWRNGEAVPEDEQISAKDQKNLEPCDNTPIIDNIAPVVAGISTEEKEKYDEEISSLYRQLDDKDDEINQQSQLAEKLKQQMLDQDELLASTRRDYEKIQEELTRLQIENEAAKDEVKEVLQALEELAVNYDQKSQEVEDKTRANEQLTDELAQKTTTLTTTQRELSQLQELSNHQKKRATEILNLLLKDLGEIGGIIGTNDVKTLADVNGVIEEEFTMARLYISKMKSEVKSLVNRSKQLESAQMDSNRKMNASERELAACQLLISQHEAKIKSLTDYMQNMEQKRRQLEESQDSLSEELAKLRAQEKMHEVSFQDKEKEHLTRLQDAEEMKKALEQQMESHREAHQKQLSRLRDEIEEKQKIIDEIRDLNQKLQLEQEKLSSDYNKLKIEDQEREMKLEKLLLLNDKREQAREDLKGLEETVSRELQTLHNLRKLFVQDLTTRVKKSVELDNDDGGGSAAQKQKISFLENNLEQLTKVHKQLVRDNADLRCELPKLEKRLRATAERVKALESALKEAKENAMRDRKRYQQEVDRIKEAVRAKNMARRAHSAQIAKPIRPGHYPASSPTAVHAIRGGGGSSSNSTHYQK
Chain of KIF5C-KLC1 heterotetramer (human) (Q07866 whole entry, chain 2 of 2, further chain): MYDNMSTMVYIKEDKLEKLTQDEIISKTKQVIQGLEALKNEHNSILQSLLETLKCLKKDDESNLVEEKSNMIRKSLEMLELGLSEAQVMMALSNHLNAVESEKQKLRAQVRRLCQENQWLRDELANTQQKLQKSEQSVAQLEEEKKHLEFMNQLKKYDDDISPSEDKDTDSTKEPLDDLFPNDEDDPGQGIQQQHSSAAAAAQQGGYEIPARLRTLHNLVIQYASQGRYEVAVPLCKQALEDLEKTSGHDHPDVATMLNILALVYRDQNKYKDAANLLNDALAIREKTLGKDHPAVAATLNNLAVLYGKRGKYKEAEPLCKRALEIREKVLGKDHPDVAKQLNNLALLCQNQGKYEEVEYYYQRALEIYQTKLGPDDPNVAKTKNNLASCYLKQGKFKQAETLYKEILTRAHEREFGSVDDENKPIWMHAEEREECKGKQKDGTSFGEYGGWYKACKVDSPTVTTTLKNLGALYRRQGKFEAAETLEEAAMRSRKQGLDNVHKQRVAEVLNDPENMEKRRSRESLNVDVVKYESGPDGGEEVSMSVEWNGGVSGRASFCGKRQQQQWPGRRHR

Chain of KIF5B-IAK/AAA-mScarlet-StrepII (P33176 whole entry I920A/K922A): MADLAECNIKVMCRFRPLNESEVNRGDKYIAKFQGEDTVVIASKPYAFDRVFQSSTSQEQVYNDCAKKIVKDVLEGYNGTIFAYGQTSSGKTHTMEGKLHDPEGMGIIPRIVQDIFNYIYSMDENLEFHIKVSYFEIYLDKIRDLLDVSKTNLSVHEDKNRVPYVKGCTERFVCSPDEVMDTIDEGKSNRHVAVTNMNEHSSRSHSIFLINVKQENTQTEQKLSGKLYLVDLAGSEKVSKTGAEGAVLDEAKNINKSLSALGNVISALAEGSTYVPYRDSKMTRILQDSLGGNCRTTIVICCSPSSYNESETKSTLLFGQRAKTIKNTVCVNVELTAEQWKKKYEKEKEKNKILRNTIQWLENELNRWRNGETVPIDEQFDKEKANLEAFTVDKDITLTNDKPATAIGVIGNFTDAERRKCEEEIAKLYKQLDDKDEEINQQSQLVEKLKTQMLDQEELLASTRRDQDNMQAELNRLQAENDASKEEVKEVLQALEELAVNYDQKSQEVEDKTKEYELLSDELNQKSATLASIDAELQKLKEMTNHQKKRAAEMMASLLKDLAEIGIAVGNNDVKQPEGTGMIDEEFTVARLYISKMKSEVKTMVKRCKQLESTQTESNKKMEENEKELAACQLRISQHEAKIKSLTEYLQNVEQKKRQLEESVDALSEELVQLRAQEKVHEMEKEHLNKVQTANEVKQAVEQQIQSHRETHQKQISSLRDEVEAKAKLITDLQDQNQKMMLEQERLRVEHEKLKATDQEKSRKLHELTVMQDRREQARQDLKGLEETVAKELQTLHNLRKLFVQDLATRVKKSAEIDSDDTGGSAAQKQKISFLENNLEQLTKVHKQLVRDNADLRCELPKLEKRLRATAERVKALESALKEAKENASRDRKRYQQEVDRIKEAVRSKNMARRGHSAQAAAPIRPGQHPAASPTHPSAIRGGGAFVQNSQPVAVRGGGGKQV
Chain of full-length human KIF5B-mScarlet-StrepII (P33176 whole entry): as the sequence (P33176 whole entry I920A/K922A) above, with A920I, A922K counted along it
Chain of tail-truncated human KIF5A (aa 1-416)-mScarlet-StrepII (Q12840 1-416): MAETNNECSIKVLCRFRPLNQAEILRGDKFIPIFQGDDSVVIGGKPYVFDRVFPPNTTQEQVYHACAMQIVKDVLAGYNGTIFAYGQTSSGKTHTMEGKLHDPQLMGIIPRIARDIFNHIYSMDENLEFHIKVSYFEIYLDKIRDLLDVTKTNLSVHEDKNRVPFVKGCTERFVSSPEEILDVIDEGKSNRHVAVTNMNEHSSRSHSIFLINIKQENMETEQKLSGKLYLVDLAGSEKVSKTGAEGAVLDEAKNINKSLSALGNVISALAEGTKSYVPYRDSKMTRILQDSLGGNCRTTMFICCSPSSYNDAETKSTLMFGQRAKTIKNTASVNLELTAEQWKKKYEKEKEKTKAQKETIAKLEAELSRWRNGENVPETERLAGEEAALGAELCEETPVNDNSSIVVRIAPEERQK
Chain of KIF5B-Δhinge (Δ505-610)-mScarlet-StrepII (P33176 other isoform, or with tags, fused parts or gaps mutant): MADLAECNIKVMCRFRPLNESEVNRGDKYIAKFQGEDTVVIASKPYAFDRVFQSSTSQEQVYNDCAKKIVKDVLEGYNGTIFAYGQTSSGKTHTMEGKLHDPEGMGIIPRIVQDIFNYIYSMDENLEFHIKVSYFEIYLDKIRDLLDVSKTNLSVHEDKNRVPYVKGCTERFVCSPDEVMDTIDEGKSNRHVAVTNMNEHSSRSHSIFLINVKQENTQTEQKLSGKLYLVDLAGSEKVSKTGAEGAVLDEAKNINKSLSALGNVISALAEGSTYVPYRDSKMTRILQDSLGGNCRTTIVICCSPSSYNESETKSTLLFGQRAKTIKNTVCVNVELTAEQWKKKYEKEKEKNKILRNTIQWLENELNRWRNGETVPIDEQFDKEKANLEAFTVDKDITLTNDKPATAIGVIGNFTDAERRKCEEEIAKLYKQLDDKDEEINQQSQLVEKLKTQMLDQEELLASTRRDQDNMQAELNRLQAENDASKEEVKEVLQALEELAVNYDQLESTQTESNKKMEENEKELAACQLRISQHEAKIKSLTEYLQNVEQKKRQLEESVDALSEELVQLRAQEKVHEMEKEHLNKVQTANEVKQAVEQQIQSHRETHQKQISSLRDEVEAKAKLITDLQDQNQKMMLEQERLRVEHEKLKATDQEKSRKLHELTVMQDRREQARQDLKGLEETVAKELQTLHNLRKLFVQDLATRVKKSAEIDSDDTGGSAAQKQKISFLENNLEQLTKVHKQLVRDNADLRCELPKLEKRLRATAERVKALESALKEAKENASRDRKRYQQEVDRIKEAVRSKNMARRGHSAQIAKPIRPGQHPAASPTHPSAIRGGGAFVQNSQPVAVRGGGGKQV
Chain of tail-truncated human KIF5B (aa 1-420)-mScarlet-StrepII (P33176 1-420): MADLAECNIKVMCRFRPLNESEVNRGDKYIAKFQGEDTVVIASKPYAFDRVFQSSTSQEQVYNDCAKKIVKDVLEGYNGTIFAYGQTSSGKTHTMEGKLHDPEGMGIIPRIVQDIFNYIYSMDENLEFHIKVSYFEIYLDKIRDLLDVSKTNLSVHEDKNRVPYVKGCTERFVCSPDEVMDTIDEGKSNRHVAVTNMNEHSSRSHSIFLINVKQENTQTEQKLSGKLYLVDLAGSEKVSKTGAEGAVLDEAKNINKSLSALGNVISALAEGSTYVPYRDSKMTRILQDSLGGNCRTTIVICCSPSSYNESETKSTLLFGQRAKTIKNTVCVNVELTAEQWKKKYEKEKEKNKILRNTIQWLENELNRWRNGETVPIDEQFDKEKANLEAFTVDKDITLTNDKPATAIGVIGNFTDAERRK
Chain of tail-truncated human KIF5C (aa 1-416)-mScarlet-StrepII (O60282 1-416): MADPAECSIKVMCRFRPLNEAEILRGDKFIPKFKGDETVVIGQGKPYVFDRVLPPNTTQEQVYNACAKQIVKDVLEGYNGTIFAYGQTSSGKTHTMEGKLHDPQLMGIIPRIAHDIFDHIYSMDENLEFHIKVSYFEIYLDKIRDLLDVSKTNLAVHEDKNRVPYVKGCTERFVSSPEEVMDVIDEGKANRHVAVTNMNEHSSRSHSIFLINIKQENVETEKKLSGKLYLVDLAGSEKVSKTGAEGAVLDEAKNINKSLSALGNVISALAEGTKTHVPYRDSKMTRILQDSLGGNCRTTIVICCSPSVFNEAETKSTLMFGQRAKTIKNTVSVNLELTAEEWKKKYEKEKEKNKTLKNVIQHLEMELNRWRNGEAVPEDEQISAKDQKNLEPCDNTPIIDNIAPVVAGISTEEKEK

landing rate [1]: 0.06
Substance: KIF5C-KLC1 heterotetramer (from UniProt O60282 1-957; Q07866 1-573) (complex)

landing rate (Motors/μm/s/μm) [1]: 0.06
Substance: KIF5B-KLC1 heterotetramer (from UniProt P33176 1-963; Q07866 1-573) (complex)

landing rate [2]: 7 /μm/s/μM
Substance: KIF5B-IAK/AAA-mScarlet-StrepII (from UniProt P33176 1-963) (natural protein)

landing rate (motors/µm/s/µM) [1]: 147
Substance: tail-truncated human KIF5C (aa 1-416)-mScarlet-StrepII (from UniProt O60282 1-416) (domain or fragment)

landing rate of 10 nM KIF5C-KLC1 on MTs (ATP) with 500 nM nesprin-4 WDAA (0.1 without) [3]: 0.2 /μm/s/μM
Substance: 6xHis-2xStrepII-sfGFP-nesprin-4 (aa 1-240) WD/AA (from UniProt Q8N205-2 1-240) (domain or fragment)

landing rate [2]: 6.2 /μm/s/μM
Substance: KIF5B-E178A-mScarlet-StrepII (from UniProt P33176 1-963) (natural protein)

landing rate (Motors/μm/s/μm) [1]: 0.08
Substance: full-length human KIF5B-mScarlet-StrepII (from UniProt P33176 1-963) (natural protein)

landing rate [2]: 22.8 /μm/s/μM
Substance: KIF5B-Δhinge (Δ505-610)-mScarlet-StrepII (from UniProt P33176 1-963) (natural protein)

landing rate (motors/µm/s/µM) [1]: 146
Substance: tail-truncated human KIF5B (aa 1-420)-mScarlet-StrepII (from UniProt P33176 1-420) (domain or fragment)

landing rate (motors/µm/s/µM) [1]: 162
Substance: tail-truncated human KIF5A (aa 1-416)-mScarlet-StrepII (from UniProt Q12840 1-416) (domain or fragment)

landing rate [2]: 5.4 /μm/s/μM
Substance: KIF5B-H129A-mScarlet-StrepII (from UniProt P33176 1-963) (natural protein)

landing rate [1]: 0.1
Substance: KIF5A-KLC1 heterotetramer (from UniProt Q12840 1-1032; Q07866 1-573) (complex)
